Test results reported in publication PMC5865128 (Nature Communications, 2018).
Residue numbers refer to the chain shown, from its start.

Tests used:
[1] = target: His-tagged human BAFF (60-mer) (human) (UniProt Q9Y275); test: SEC; purified His-tagged BAFF alone on Superdex 200 Increase, against molecular weight standards
[2] = target: naturally cleaved, untagged human BAFF H218A (human); test: SEC; concentrated 293 T supernatants of naturally cleaved BAFF fractionated on Superdex 200 Increase; fractions blotted with anti-BAFF antibodies; oligomer seen in the fractions
[3] = target: naturally cleaved, untagged human BAFF E223K (human); test: as above
[4] = target: T1, FLAG-tagged mouse BAFF 3-mer, wild type (mouse, UniProt Q9WU72 127-309); test: ELISA; direct binding: BAFFR-Fc, BCMA-Fc or TACI-Fc (human or mouse) adsorbed at 1 µg/ml; FLAG-tagged BAFF 3-mers of the corresponding species 1 h at 37 °C in PBS, 0.4% milk, 0.05% Tween-20; biotinylated anti-FLAG detection; conditions: both partners purified
T1 construct: mouse BAFF (Tnfsf13b), soluble form; also called FLAG-mBAFF WT; mBAFF; source: 293 T cells, transient transfection, supernatant, size fractionated by gel filtration (3-mer fractions 13 + 14)

[5] = target: T2, FLAG-tagged mouse BAFF 3-mer, H242A (mouse, UniProt Q9WU72 127-309, H242A); test: as above; conditions: both partners purified
T2 construct: mouse BAFF (Tnfsf13b), soluble form; also called FLAG-mBAFF H242A; source: 293 T cells, transient transfection, supernatant, size fractionated by gel filtration (3-mer fractions 13 + 14)
T2 sequence (looked up): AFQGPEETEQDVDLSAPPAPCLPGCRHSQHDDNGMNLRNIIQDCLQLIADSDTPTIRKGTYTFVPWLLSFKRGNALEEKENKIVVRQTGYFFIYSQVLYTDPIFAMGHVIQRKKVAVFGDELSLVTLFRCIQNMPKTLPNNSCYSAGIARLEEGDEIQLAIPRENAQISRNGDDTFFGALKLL

[6] = target: T3, FLAG-tagged mouse BAFF 3-mer, E247K (mouse, UniProt Q9WU72 127-309, E247K); test: as above; conditions: both partners purified
T3 construct: mouse BAFF (Tnfsf13b), soluble form; also called FLAG-mBAFF E247K; source: 293 T cells, transient transfection, supernatant, size fractionated by gel filtration (3-mer fractions 13 + 14)
T3 sequence (looked up): T2 sequence (looked up) with A116H, E121K

Fc-human BAFF, wild type = target: T4, Fc-human BAFF, wild type (human, UniProt Q9Y275); test: ELISA; Fc-hBAFF (WT or H218A) coated at 1 µg/ml; soluble Fc-BAFF (WT or H218A) titrated, then biotinylated Fab of belimumab (50 µl of 100 ng/ml); streptavidin-peroxidase detection; relative affinity; conditions: both partners purified
T4 construct: human BAFF (TNFSF13B); called an intrinsically cross-linked BAFF; also called Fc-hBAFF WT; Fc-BAFF

[7] = target: T5, FLAG-tagged human BAFF 3-mer, H218A (human, UniProt Q9Y275 134-285, H218A); test: ELISA; direct binding: BAFFR-Fc, BCMA-Fc or TACI-Fc (human or mouse) adsorbed at 1 µg/ml; FLAG-tagged BAFF 3-mers of the corresponding species 1 h at 37 °C in PBS, 0.4% milk, 0.05% Tween-20; biotinylated anti-FLAG detection; conditions: both partners purified
T5 construct: human BAFF (TNFSF13B), soluble form; also called FLAG-hBAFF H218A; source: 293 T cells, transient transfection, supernatant, size fractionated by gel filtration (3-mer fractions 15 + 16)

[8] = target: T6, FLAG-tagged human BAFF 3-mer, E223K (human, UniProt Q9Y275 134-285, E223K); test: as above; conditions: both partners purified
T6 construct: human BAFF (TNFSF13B), soluble form; also called FLAG-hBAFF E223K; source: 293 T cells, transient transfection, supernatant, size fractionated by gel filtration (3-mer fractions 15 + 16)

Molecule: His-tagged human BAFF (60-mer) (from UniProt Q9Y275 134-285) (ligand)
- stoichiometry N [1]: 60

Molecule: naturally cleaved, untagged human BAFF H218A (ligand)
- stoichiometry N [2]: 3

Molecule: naturally cleaved, untagged human BAFF E223K (ligand)
- stoichiometry N [3]: 3

B1: mouse BAFFR-Fc (Fc fusion, UniProt Q9D8D0 1-71, looked up)
chain: MGARRLRVRSQRSRDSSVPTQCNQTECFDPLVRNCVSCELFHTPDTGHTSSLEPGTALQPQEGSALRPDVA
notes: mouse BAFF receptor (BAFFR); also called mBAFFR-Fc
- binding result [4]: binds
- binding result [5]: binds
- binding result [6]: binds

Molecule: MAQQCFHSEYFDSLLHACKPCHLRCSNPPATCQPYCDPSVTSSVKGTYT (Fc fusion, UniProt O88472 1-49, looked up, mouse BCMA) [mouse BCMA-Fc]
- binding result [4]: binds
- binding result [5]: binds
- binding result [6]: binds

B2: mouse TACI-Fc (Fc fusion, UniProt Q9ET35 1-128, looked up)
chain: MAMAFCPKDQYWDSSRKSCVSCALTCSQRSQRTCTDFCKFINCRKEQGRYYDHLLGACVSCDSTCTQHPQQCAHFCEKRPRSQANLQPELGRPQAGEVEVRSDNSGRHQGSEHGPGLRLSSDQLTLYC
notes: mouse TACI
- binding result [4]: binds
- binding result [5]: binds
- binding result [6]: binds

B3: Fab fragment of belimumab (Fab, V domains shown)
VH: QVQLQQSGAEVKKPGSSVRVSCKASGGTFNNNAINWVRQAPGQGLEWMGGIIPMFGTAKYSQNFQGRVAITADESTGTASMELSSLRSEDTAVYYCARSRDLLLFPHHALSPWGRGTMVTVSS
VL: SSELTQDPAVSVALGQTVRVTCQGDSLRSYYASWYQQKPGQAPVLVIYGKNNRPSGIPDRFSGSSSGNTASLTITGAQAEDEADYYCSSRDSSGNHWVFGGGTELTVL
notes: heavy-chain part of the Fab; as the light chain of m24; also called belimumab Fab; source: papain digestion of belimumab, flowthrough of Protein A, size-fractionated (Superdex 200 Increase)
- binding result (Fc-human BAFF, wild type): binds

B4: human BCMA-Fc (Fc fusion, UniProt Q02223 1-54, looked up)
chain: MLQMAGQCSQNEYFDSLLHACIPCQLRCSSNTPPLTCQRYCNASVTNSVKGTNA
notes: human BCMA (TNFRSF17); also called TNFRSF17
- binding result [7]: binds
- binding result [8]: binds
